Assay results published in patent US20050106100.

Legend:
Ac-POG˜Hphe-L-Hynic = biological target: T1, Ac-POG˜Hphe-L-Hynic
T1 chain: PXGXL

[1] = biological target: T2, Ac-PLG˜Hphe-OL-Ambh-Hynic
T2 chain: PLGXXL

[2] = biological target: T3, Ac-NGlu-PLG˜Hphe-YL-Ambh-Hynic (not fully specified)
T3 chain: XPLGXYL

Ac-PLG˜Hphe-YL-Hynic = biological target: T4, Ac-PLG˜Hphe-YL-Hynic
T4 chain: PLGXYL

Ac-POG˜Hphe-L-Ambh-Hynic = biological target: T5, Ac-POG˜Hphe-L-Ambh-Hynic
T5 chain: PXGXL

Ac-NGlu-POG˜Hphe-L-Hynic = biological target: T6, Ac-NGlu-POG˜Hphe-L-Hynic (not fully specified)
T6 chain: XPXGXL

[3] = biological target: T7, Ac-PLG˜Hphe-YL-Ahxh-Hynic (not fully specified)
T7 chain: PLGXYL

[4] = biological target: T8, Ac-Csa-PLG˜Hphe-YL-Ambh-Hynic (not fully specified)
T8 chain: XPLGXYL

B1: mouse MMP9 (protein)
chain: FQTFKGLKWDHHNITYWIQNYSEDLPRDMIDDAFARAFAVWGEVAPLTFTRVYGPEADIVIQFGVAEHGDGYPFDGKDGLLAHAFPPGAGVQGDAHFDDDELWSLGKGVVIPTYYGNSNGAPCHFPFTFEGRSYSACTTDGRNDGTPWCSTTADYDKDGKFGFCPSERLYTEHGNGEGKPCVFPFIFEGRSYSACTTKGRSDGYRWCATTANYDQDKLYGFCPTRVDATVVGGNSAGELCVFPFVFLGKQYSSCTSDGRRDGRLWCATTSNFDTDKKWGFCPDQGYSLFLVAAHEFGHALGLDHSSVPEALMYPLYSYLEGFPLNKDDIDGIQYLYGRGSKPDPRPPATTTTEPQPTAPPTMCPTIPPTAYPTVGPTVGPTGAPSPGPTSSPSPGPTGAPSPGPTAPPTAGSSEASTESLSPADNPCNVDVFDAIAEIQGALHFFKDGWYWKFLNHRGSPLQGPFLTARTWPALPATLDSAFEDPQTKRVFFFSGRQMWVYTGKTVLGPRSLDKLGLGPEVTHVSGLLPRRLGKALLFSKGRVWRFDLKSQKVDPQSVIRVDKEFSGVPWNSHDIFQYQDKAYFCHGKFFWRVSFQNEVNKVDHEVNQVDDVGYVTYDLLQCP
Work on B1 yielded a Kcat/Km (Ac-POG˜Hphe-L-Hynic) of 897 M⁻¹ s⁻¹, a Kcat/Km [1] of 48000 M⁻¹ s⁻¹ and a Kcat/Km [2] of over 100000 M⁻¹ s⁻¹. It also gave a Kcat/Km (Ac-PLG˜Hphe-YL-Hynic) of over 100000 M⁻¹ s⁻¹, a Kcat/Km (Ac-POG˜Hphe-L-Ambh-Hynic) of 14400 M⁻¹ s⁻¹ and a Kcat/Km (Ac-NGlu-POG˜Hphe-L-Hynic) of 571 M⁻¹ s⁻¹. It also gave a Kcat/Km [3] of over 100000 M⁻¹ s⁻¹ and a Kcat/Km [4] of 31000 M⁻¹ s⁻¹.
